Tests used:
[1] = target: cynomolgus ULBP2 (26-216) displayed on yeast (cynomolgus); assay: flow cytometry on yeast displaying ULBP2; unstained control 385
[2] = target: T1, human ULBP2 (26-216) P41A on yeast (human) (UniProt Q9BZM5); assay: yeast display FACS, 1 nM
T1 sequence: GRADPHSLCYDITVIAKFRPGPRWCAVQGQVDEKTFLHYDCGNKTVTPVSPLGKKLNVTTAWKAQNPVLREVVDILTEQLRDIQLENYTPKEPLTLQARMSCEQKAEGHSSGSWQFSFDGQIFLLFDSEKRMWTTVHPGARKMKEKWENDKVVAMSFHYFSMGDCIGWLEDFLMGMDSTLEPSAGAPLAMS

[3] = target: T2, human ULBP2 (26-216) R44A on yeast (human) (UniProt Q9BZM5); assay: yeast display FACS, 1 nM
T2 sequence: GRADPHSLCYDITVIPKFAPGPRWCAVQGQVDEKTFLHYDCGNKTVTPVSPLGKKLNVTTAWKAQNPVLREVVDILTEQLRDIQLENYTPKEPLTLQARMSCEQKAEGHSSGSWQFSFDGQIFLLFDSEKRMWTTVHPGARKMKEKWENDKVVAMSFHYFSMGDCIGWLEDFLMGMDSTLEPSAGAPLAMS

[4] = target: Cynomolgus ULBP2 (26-216) fused to hIgG1 Fc (cynomolgus; human); assay: SPR, biotinylated antigen on SA chip

Binder	MFI [1]	Gate 1 Freq. of Total [2]	Gate 2 Freq. of Total [2]	Gate 3 Freq. of Total [2]	Gate 1 Freq. of Total [3]	Gate 2 Freq. of Total [3]	Gate 3 Freq. of Total [3]	Kd [4]	koff [4]	kon [4]
A06 (antibody, V domains shown) VH: EVQLVQSGAEVKKPGESLKISCKGSGYAFSTSWMNWVRQMPGKGLEWMGRIYPGDGDTNYNGNFKGQVTISADKSISTAYLQWSSLKASDTAMYYCARGGELRLEAMDSWGQGTLVTVSS VL: EIVMTQSPATLSLSPGERITLSCSASSSIHSNYLHWYQQKPGQAPRLLIYRTSNLASGIPARFSGSGSGTDFTLTISSLQPEDFAVYYCQQGFSIPFTFGQGTKLEIK	551	0.052%	0.32%	2.61%	0.19%	0.8%	1.58%			
E12 (antibody, V domains shown) VH: QVQLVQSGAEVKKPGASVKVSCKASGYTFTNYDINWVRQAPGQGLEWMGWIYPGDGSTYYNEKFKGRVTMTRDTSTSTVYMELSSLRSEDTAVYYCARSGDYGLYYFDYWGQGTLVTVSS VL: EIVLTQSPATLSLSPGERATLSCRASQSIGTSIHWYQQKPGQAPRLLIYFASESISGIPARFSGSGSGTDFTLTISSLEPEDFAVYYCQQSNSWPLYTFGGGTKVEIK	11700	0.098%	0.41%	4.73%				0.534 nM	0.00182 s⁻¹	3.41e+06 M⁻¹ s⁻¹

— US20250197496A1
